Laboratory results as given in patent US20260207798A1, “CYCLIC PEPTIDES AS PET IMAGING AGENTS OF GRANZYME B” (priority 2022, published 2026).
One block for each binder: values may come before it. Bridge positions count the residues as written; N and C are the ends. Square brackets hold non-standard residues; d marks the D form. NEtAla = CCN[C@@H](C)C(=O)O; NMeA = CN[C@@H](C)C(=O)O

Target: T1, human Granzyme B (human, UniProt P10144 21-247)
T1 construct: Captured on a Series S Streptavidin chip for SPR; also called hGranzyme B; GzmB
Test: SPR, Biacore 8k+, hGranzyme B captured on SA chip, single cycle kinetics, 1:1 model
Experimental: The kinetics of test peptide binding to human Granzyme B (hGranzyme B) was determined by SPR. All experiments were performed at 25° C. using the Biacore 8k+ instrument (Cytiva, Marlborough, MA). The Biacore 8k+ Insight Evaluation Software Version 3.0 was used to fit the data with a 1:1 binding model to determine the association rate constant kₐ (M⁻¹s⁻¹, where “M” ~equals molar and “s” ~equals seconds) and the dissociation rate constant kd (s⁻¹). These rate constants were used to calculate the equilibrium dissociation constant. KD (M)=kd/kₐ.
To measure the binding kinetics of peptides of interest, surfaces were prepared by a capture method to a Series S Streptavidin (SA) chip using a 1×HBS-EP+ running buffer (Cytiva). hGranzyme B was diluted to 10 μg/mL in IX HBS-EP+ and flowed over spot 2 of each flow cell on the chip at a flow rate of 10 ul/min for 20 s to achieve a level of capture of ~1100 RU. An unmodified spot 1 of each flow cell was used as a matrix binding control or reference surface. Binding kinetics were measured using single cycle kinetics at 25° C. by injecting 5 concentrations with 3-fold serial dilutions of test peptides from 0.01 μM to 1 μM. Compound dilutions were performed manually in a running buffer containing 1×HBS-EP+(Cytiva), and a final concentration of 2% DMSO. The interaction analyses over hGranzyme B, were performed using a 120 s association time and a 900 s dissociation time. All experiments were conducted at a flow rate of 50 μL/min with a data collection rate of 10 Hz.
Peptide dilution series included 2 zero concentration points (no compound) which were averaged and subtracted from the peptide concentration injection as DMSO control responses. Binding data acquired from the reference surface (matrix binding control) were subtracted from the binding data for hGranzyme B surface on the chip to determine specific binding. Next, the association phase data were solvent corrected to account for any signal fluctuation throughout the experiment due to subtle DMSO concentration differences. Corrected response data were analyzed using the Biacore 8k+ Evaluation Software Version 3.0 according to the manufacturer. SPR data for representative compounds of the disclosure are found in Table 8.

T1 sequence (P10144 21-247 limits assumed): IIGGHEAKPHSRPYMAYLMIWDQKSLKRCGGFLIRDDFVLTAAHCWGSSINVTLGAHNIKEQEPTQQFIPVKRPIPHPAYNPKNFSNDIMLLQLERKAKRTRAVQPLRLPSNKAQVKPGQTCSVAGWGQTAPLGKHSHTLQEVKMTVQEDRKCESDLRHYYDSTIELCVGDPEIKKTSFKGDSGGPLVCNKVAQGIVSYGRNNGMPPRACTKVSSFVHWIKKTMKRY

Kd: 1.1 nM
B2: Compound 39a (peptide)
peptide: {CH2CO}-YNFEDQSPDTWQPCG-NH2
modifications: thioether N-14
SMILES: C[C@@H](O)[C@@H]1NC(=O)[C@H](CC(=O)O)NC(=O)[C@@H]2CCCN2C(=O)[C@H](CO)NC(=O)[C@H](CCC(N)=O)NC(=O)[C@H](CC(=O)O)NC(=O)[C@H](CCC(=O)O)NC(=O)[C@H](Cc2ccccc2)NC(=O)[C@H](CC(N)=O)NC(=O)[C@H](Cc2ccc(O)cc2)NC(=O)CSC[C@@H](C(=O)NCC(N)=O)NC(=O)[C@@H]2CCCN2C(=O)[C@H](CCC(N)=O)NC(=O)[C@H](Cc2c[nH]c3ccccc23)NC1=O

Kd: 7.1 nM
B4: Compound 63a (peptide)
peptide: {CH2CO}-FNFEDQGPDTWQPCG-NH2
modifications: thioether N-14
SMILES: C[C@@H](O)[C@@H]1NC(=O)[C@H](CC(=O)O)NC(=O)[C@@H]2CCCN2C(=O)CNC(=O)[C@H](CCC(N)=O)NC(=O)[C@H](CC(=O)O)NC(=O)[C@H](CCC(=O)O)NC(=O)[C@H](Cc2ccccc2)NC(=O)[C@H](CC(N)=O)NC(=O)[C@H](Cc2ccccc2)NC(=O)CSC[C@@H](C(=O)NCC(N)=O)NC(=O)[C@@H]2CCCN2C(=O)[C@H](CCC(N)=O)NC(=O)[C@H](Cc2c[nH]c3ccccc23)NC1=O

Kd: 12.4 nM
B7: Compound 67a (peptide)
peptide: {CH2CO}-FNFEDQSPDTWQ[NMeA]CG-NH2
modifications: thioether N-14
SMILES: C[C@@H](O)[C@@H]1NC(=O)[C@H](CC(=O)O)NC(=O)[C@@H]2CCCN2C(=O)[C@H](CO)NC(=O)[C@H](CCC(N)=O)NC(=O)[C@H](CC(=O)O)NC(=O)[C@H](CCC(=O)O)NC(=O)[C@H](Cc2ccccc2)NC(=O)[C@H](CC(N)=O)NC(=O)[C@H](Cc2ccccc2)NC(=O)CSC[C@@H](C(=O)NCC(N)=O)NC(=O)[C@H](C)N(C)C(=O)[C@H](CCC(N)=O)NC(=O)[C@H](Cc2c[nH]c3ccccc23)NC1=O

Kd: 3.5 nM
B8: Compound 44a (peptide)
peptide: {CH2CO}-FNFEDQSPATWQPCG-NH2
modifications: thioether N-14
SMILES: C[C@@H]1NC(=O)[C@@H]2CCCN2C(=O)[C@H](CO)NC(=O)[C@H](CCC(N)=O)NC(=O)[C@H](CC(=O)O)NC(=O)[C@H](CCC(=O)O)NC(=O)[C@H](Cc2ccccc2)NC(=O)[C@H](CC(N)=O)NC(=O)[C@H](Cc2ccccc2)NC(=O)CSC[C@@H](C(=O)NCC(N)=O)NC(=O)[C@@H]2CCCN2C(=O)[C@H](CCC(N)=O)NC(=O)[C@H](Cc2c[nH]c3ccccc23)NC(=O)[C@H]([C@@H](C)O)NC1=O

Kd: 5.7 nM
B9: Compound 57a (peptide)
peptide: {CH2CO}-FNFEDQSPSTWQPCG-NH2
modifications: thioether N-14
SMILES: C[C@@H](O)[C@@H]1NC(=O)[C@H](CO)NC(=O)[C@@H]2CCCN2C(=O)[C@H](CO)NC(=O)[C@H](CCC(N)=O)NC(=O)[C@H](CC(=O)O)NC(=O)[C@H](CCC(=O)O)NC(=O)[C@H](Cc2ccccc2)NC(=O)[C@H](CC(N)=O)NC(=O)[C@H](Cc2ccccc2)NC(=O)CSC[C@@H](C(=O)NCC(N)=O)NC(=O)[C@@H]2CCCN2C(=O)[C@H](CCC(N)=O)NC(=O)[C@H](Cc2c[nH]c3ccccc23)NC1=O

Kd: 15.6 nM
B11: Compound 68a (peptide)
peptide: {CH2CO}-FNFEDQSPDTWQ[NEtAla]CG-NH2
modifications: thioether N-14
SMILES: CCN1C(=O)[C@H](CCC(N)=O)NC(=O)[C@H](Cc2c[nH]c3ccccc23)NC(=O)[C@H]([C@@H](C)O)NC(=O)[C@H](CC(=O)O)NC(=O)[C@@H]2CCCN2C(=O)[C@H](CO)NC(=O)[C@H](CCC(N)=O)NC(=O)[C@H](CC(=O)O)NC(=O)[C@H](CCC(=O)O)NC(=O)[C@H](Cc2ccccc2)NC(=O)[C@H](CC(N)=O)NC(=O)[C@H](Cc2ccccc2)NC(=O)CSC[C@@H](C(=O)NCC(N)=O)NC(=O)[C@@H]1C

Kd: 6 nM
B13: Compound 59a (peptide)
peptide: {CH2CO}-FNFEDQSPYTWQPCG-NH2
modifications: thioether N-14
SMILES: C[C@@H](O)[C@@H]1NC(=O)[C@H](Cc2ccc(O)cc2)NC(=O)[C@@H]2CCCN2C(=O)[C@H](CO)NC(=O)[C@H](CCC(N)=O)NC(=O)[C@H](CC(=O)O)NC(=O)[C@H](CCC(=O)O)NC(=O)[C@H](Cc2ccccc2)NC(=O)[C@H](CC(N)=O)NC(=O)[C@H](Cc2ccccc2)NC(=O)CSC[C@@H](C(=O)NCC(N)=O)NC(=O)[C@@H]2CCCN2C(=O)[C@H](CCC(N)=O)NC(=O)[C@H](Cc2c[nH]c3ccccc23)NC1=O

Continued, binder first:

B1: Compound 37a (peptide)
peptide: {CH2CO}-FNFEDQSAHTWQPCG-NH2
modifications: thioether N-14
SMILES: C[C@@H]1NC(=O)[C@H](CO)NC(=O)[C@H](CCC(N)=O)NC(=O)[C@H](CC(=O)O)NC(=O)[C@H](CCC(=O)O)NC(=O)[C@H](Cc2ccccc2)NC(=O)[C@H](CC(N)=O)NC(=O)[C@H](Cc2ccccc2)NC(=O)CSC[C@@H](C(=O)NCC(N)=O)NC(=O)[C@@H]2CCCN2C(=O)[C@H](CCC(N)=O)NC(=O)[C@H](Cc2c[nH]c3ccccc23)NC(=O)[C@H]([C@@H](C)O)NC(=O)[C@H](Cc2c[nH]cn2)NC1=O
Kd: 19.1 nM

B3: Compound 60a (peptide)
peptide: {CH2CO}-FNFEDQSPHTWQPCG-NH2
modifications: thioether N-14
SMILES: C[C@@H](O)[C@@H]1NC(=O)[C@H](Cc2c[nH]cn2)NC(=O)[C@@H]2CCCN2C(=O)[C@H](CO)NC(=O)[C@H](CCC(N)=O)NC(=O)[C@H](CC(=O)O)NC(=O)[C@H](CCC(=O)O)NC(=O)[C@H](Cc2ccccc2)NC(=O)[C@H](CC(N)=O)NC(=O)[C@H](Cc2ccccc2)NC(=O)CSC[C@@H](C(=O)NCC(N)=O)NC(=O)[C@@H]2CCCN2C(=O)[C@H](CCC(N)=O)NC(=O)[C@H](Cc2c[nH]c3ccccc23)NC1=O
Kd: 6.1 nM

B5: Compound 58a (peptide)
peptide: {CH2CO}-FNFEDQSPKTWQPCG-NH2
modifications: thioether N-14
SMILES: C[C@@H](O)[C@@H]1NC(=O)[C@H](CCCCN)NC(=O)[C@@H]2CCCN2C(=O)[C@H](CO)NC(=O)[C@H](CCC(N)=O)NC(=O)[C@H](CC(=O)O)NC(=O)[C@H](CCC(=O)O)NC(=O)[C@H](Cc2ccccc2)NC(=O)[C@H](CC(N)=O)NC(=O)[C@H](Cc2ccccc2)NC(=O)CSC[C@@H](C(=O)NCC(N)=O)NC(=O)[C@@H]2CCCN2C(=O)[C@H](CCC(N)=O)NC(=O)[C@H](Cc2c[nH]c3ccccc23)NC1=O
Kd: 5.9 nM

B6: Compound 46a (peptide)
peptide: {CH2CO}-FNFEDQSPRTWQPCG-NH2
modifications: thioether N-14
SMILES: C[C@@H](O)[C@@H]1NC(=O)[C@H](CCCNC(=N)N)NC(=O)[C@@H]2CCCN2C(=O)[C@H](CO)NC(=O)[C@H](CCC(N)=O)NC(=O)[C@H](CC(=O)O)NC(=O)[C@H](CCC(=O)O)NC(=O)[C@H](Cc2ccccc2)NC(=O)[C@H](CC(N)=O)NC(=O)[C@H](Cc2ccccc2)NC(=O)CSC[C@@H](C(=O)NCC(N)=O)NC(=O)[C@@H]2CCCN2C(=O)[C@H](CCC(N)=O)NC(=O)[C@H](Cc2c[nH]c3ccccc23)NC1=O
Kd: 3.8 nM

B10: Compound 56a (peptide)
peptide: {CH2CO}-FNFEDQSPQTWQPCG-NH2
modifications: thioether N-14
SMILES: C[C@@H](O)[C@@H]1NC(=O)[C@H](CCC(N)=O)NC(=O)[C@@H]2CCCN2C(=O)[C@H](CO)NC(=O)[C@H](CCC(N)=O)NC(=O)[C@H](CC(=O)O)NC(=O)[C@H](CCC(=O)O)NC(=O)[C@H](Cc2ccccc2)NC(=O)[C@H](CC(N)=O)NC(=O)[C@H](Cc2ccccc2)NC(=O)CSC[C@@H](C(=O)NCC(N)=O)NC(=O)[C@@H]2CCCN2C(=O)[C@H](CCC(N)=O)NC(=O)[C@H](Cc2c[nH]c3ccccc23)NC1=O
Kd: 5.5 nM

B12: Compound 65a (peptide)
peptide: {CH2CO}-FNFEDQSPGTWQPCG-NH2
modifications: thioether N-14
SMILES: C[C@@H](O)[C@@H]1NC(=O)CNC(=O)[C@@H]2CCCN2C(=O)[C@H](CO)NC(=O)[C@H](CCC(N)=O)NC(=O)[C@H](CC(=O)O)NC(=O)[C@H](CCC(=O)O)NC(=O)[C@H](Cc2ccccc2)NC(=O)[C@H](CC(N)=O)NC(=O)[C@H](Cc2ccccc2)NC(=O)CSC[C@@H](C(=O)NCC(N)=O)NC(=O)[C@@H]2CCCN2C(=O)[C@H](CCC(N)=O)NC(=O)[C@H](Cc2c[nH]c3ccccc23)NC1=O
Kd: 11 nM
